In PMC10881500:

Legend:
[1] = target: KFN (Mut3; HuJovi-1 VH T28K, Y32F, A96N), human IgG1 (human); assay: SPR; Biacore T200; antibody as human IgG1 captured with an anti-human capture kit on CM5 to 200 RU; TRBC1 or TRBC2 as analyte, 150 s contact, 300 s dissociation, 30 μl/min, 25 °C, HBS-P+ pH 7.4; 1:1 Langmuir model
[2] = target: HuJovi-1 (humanized Jovi-1), human IgG1 (human); assay: as above
Chain of HuJovi-1 (humanized Jovi-1), human IgG1 (human) (heavy, as listed by the source, chain 1 of 2): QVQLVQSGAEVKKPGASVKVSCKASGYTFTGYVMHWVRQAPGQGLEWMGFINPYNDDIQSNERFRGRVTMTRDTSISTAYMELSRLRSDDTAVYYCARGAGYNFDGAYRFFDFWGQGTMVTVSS
Chain of HuJovi-1 (humanized Jovi-1), human IgG1 (human) (light, as listed by the source, chain 2 of 2): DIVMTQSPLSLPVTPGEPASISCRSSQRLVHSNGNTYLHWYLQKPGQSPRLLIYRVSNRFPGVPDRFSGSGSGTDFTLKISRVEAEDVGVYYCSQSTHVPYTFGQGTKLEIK

Chain of KFN (Mut3; HuJovi-1 VH T28K, Y32F, A96N), human IgG1 (human) (heavy, as listed by the source, chain 1 of 2): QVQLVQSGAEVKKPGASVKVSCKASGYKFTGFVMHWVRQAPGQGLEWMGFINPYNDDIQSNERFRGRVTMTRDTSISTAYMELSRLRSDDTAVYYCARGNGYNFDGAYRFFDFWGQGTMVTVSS
Chain of KFN (Mut3; HuJovi-1 VH T28K, Y32F, A96N), human IgG1 (human) (light, as listed by the source, chain 2 of 2): as the sequence (light, as listed by the source, chain 2 of 2) above

Row | Substance | Kd [1] [µM] | koff [1] [s⁻¹] | Kd [2] [µM] | koff [2] [s⁻¹]
1 | Recombinant, purified TRBC1 (soluble αβ TCR with the β-chain constant domain TRBC1), SPR analyte | 1.96 | 0.155 | – | –
2 | Recombinant, purified TRBC2 (soluble αβ TCR with the β-chain constant domain TRBC2), SPR analyte | – | – | 12.9 | 1.29
